These results are taken from the DeepSol protein solubility set.

A short description of the data set: soluble on expression in E. coli; label from the status in PepcDB or PDB records.
For “MKQLYWYTCGEGDCDLVLLHGWGLNSGVWHCIIDRLAPHFRLHLVDLPGYGRSQDYGAMSLADMAERVAQQAPKQALWLGWSMGGLVASQIALSQPECVRGLITVSSSPCFTARDEWPGIKPEVLAGFQHQLSDDFHRTVERFLALQTLGTESSRQDARLLKSVVLQHQMPDVEVLTGGLAILRTADLRTALAGFTLPFMRVYGHLDSLVPRKVASLLDSAWPQTQSVVMQGAAHAPFISHPNDFAKLILNFAEENKK”, the “soluble on expression in E. coli” value is reported as “not soluble”.

For the sequence “MKQVAVISGKGGTGKTTFSATIHALEGGVVADCDVDAPNLHILLKPQILKAEDFIASKKARIMPEKCSSCGLCYDLCRFGAVVAEDGYYVDEKKCEGCAFCFNVCPERAIEMENVKTGDLYVSKTEWGYFVHARLKPGEENTGRLVTEVKNRAKEIAEESNAEFLIVDSAPGVGCPVMASLTGVDAAIIVTEPTVSGLSDMLRILELCEHFRIRPFVVVNKFDLNVNIASEIESYCSENGVEFAGRVPFDKAIPEQIANLNFPFSGKAADKMVEIWKKLREVLLEHHHHHH”, the “soluble on expression in E. coli” value is listed as “soluble”.

As for “MKRDARDAPKSITLGFEADCVTLPIDAILPLRALGKSAKSSRKYRQIAASIAQIGIVEPPVVVRNPDRSATWLLLDGHMRIEALKDAGGSEVECLVSTDDEAFTYNRQISRLAPIQEHKMIRKAIERGVPEEKIALALDLNMSSIRRKARLLDGICEEAVAILKDKPCTNAVFDALRKMRTMRQIEAAELLVNANNYSVAYVNAILAGTPQAQLVESSKPKKVKGITPDAMARMEQELARLQEGIASIQDTYGEDHLHLTVIKGYVGKLLGNARVVRYLAQNHPEFLGEFQTITEITPAEADAAE”, the “soluble on expression in E. coli” value was “not soluble”.

Turning to “MKRDKEVSINKKDPFSVLIMGVDERDGDKGRADTLIYMTVNPKTNTTDMVSIPRDTYTKIIGKGTMDKINHSYAFGGTQMTVDTVENFLDVPVDYFVKVNMESFRDVVDTLGGITVNSTFAFSYDGYSFGKGEITLNGKEALAYTRMRKEDPRGDFGRQDRQRQVIQGIINKGANISSITKFGDMFKVVENNVKTNLTFDNMWDIQSDYKGARKHIKQHELKGTGTKINGIYYYQADESALSDITKELKESLEKLEHHHHHH”, the “soluble on expression in E. coli” value is given as “soluble”.

For “MKRIITLTVVNRSGVLNRITGLFTKRHYNIESITVGHTETAGVSRITFVVHVEGENDVEQLTKQLNKQIDVLKVTDITNQSIVQRELALIKVVSAPSTRTEINGIIEPFRASVVDVSRDSIVVQVTGESNKIEALIELLKPYGIKEIARTGTTAFARGTSKRRHPIKQYLLYKTLEHHHHHH”, the “soluble on expression in E. coli” value was “soluble”.

Turning to “MKRILCITGTRADFGKLKPLLAYIENHPDLELHLIVTGMHMMKTYGRTYKEVTRENYQHTYLFSNQIQGEPMGAVLGNTITFISRLSDEIEPDMVMIHGDRLEALAGAAVGALSSRLVCHIEGGELSGTVDDSIRHSISKLSHIHLVANEQAVTRLVQMGEKRKHIHIIGSPDLDVMASSTLPSLEEVKEYYGLPYENYGISMFHPVTTEAHLMPQYAAQYFKALELSGQNIISIYPNNDTGTESILQELLKYQSDKFIAFPSIRFEYFLVLLKHAKFMVGNSSAGIREAPLYGVPSIDVGTRQSNRHMGKSIIHTDYETKNIFDAIQQACSLGKFEADDTFNGGDTRTSTERFAEVINNPETWNVSAQKRFIDLNL”, the “soluble on expression in E. coli” value was “not soluble”.

Turning to “MKRLIICNGNKLTVCTQAISSGGIVEKYTPIFSLTKESDNELTLELSGVARGYYIIPSELTSSQARAAHLITLLTRAEESQTTDMHKILNSFVSGKITSGSMFNFENDGSFKREPEEAYNLINKI”, the “soluble on expression in E. coli” value was “not soluble”.

“MKRLLFLGVDVGGTKTLAVLSDEQGNVLAIYKGKGANYQVVGKENAVRNLKDVIEAILDRAGKTRKEIDFAFFGYAGADFDYEMKIVREILEKLGLEKFDFDNDGRIALRSGVFDDIGIMVSCGTGSISYASDGRRVNRIGGLSFSLGERLGSHYIASLVTSAVMRAKDGRDDWTTLVDEVEKEIGPVENLLRYDYEGGYTAELVKKVNQALFRCAEKGDAVSLRIFDEIVVEVKKIIDAHRKALNFTPPIKLILEGSFFKNAPSLLINMIESAIGREYEIVIPEHDPVIGAVLFAMERVGLRVTEDLYNRLVRNYLREVKK”: the “soluble on expression in E. coli” value is recorded as “soluble”.

Regarding “MKRQLFTVLVCMTMFAVASCGEKKGKDKFEERIEKAKESVEDVVDDAKDQIEDKADEVGETLDKAKSKIEKAKKKLDEANRD”, the “soluble on expression in E. coli” value is “not soluble”.

Turning to “MKRQWALEDFEIGRPLGKGKFGNVYLAREKQSKFILALKVLFKAQLEKAGVEHQLRREVEIQSHLRHPNILRLYGYFHDATRVYLILEYAPLGTVYRELQKLSKFDEQRTATYITELANALSYCHSKRVIHRDIKPENLLLGSAGELKIADFGWSVHAPSSRRTDLCGTLDYLPPEMIEGRMHDEKVDLWSLGVLCYEFLVGKPPFEANTYQETYKRISRVEFTFPDFVTEGARDLISRLLKHNPSQRPMLREVLEHPWITANSSKPSNCQNKESAAAALEHHHHHH”, the “soluble on expression in E. coli” value is reported as “soluble”.

Regarding “MKRTKKEFTPYNEYHDRPFELKWATAFALGELQEGIEASDEYSKRAFERLPQQTTEEIEEYLEQSLKNNQVLEIQLNTLDDFGRVQPPIVGVFEGMSSMEYVKVGHTHILFEEIRHIKSHEFTKWSSLD”, the “soluble on expression in E. coli” value is listed as “not soluble”.

“MKRYPRDMRGHGPTPPDAAWPGGARIAVSIVLNYEEGGENCLLHGDAQSEAFLSDIAGAQPWPGQRHWNMESIYDYGARAGFWRLHRLFTGLNIPVTVYGVATALARSPEQVAAMKSAGWEIASHGLKWVEHRDMPEEEERRQIAEAIRLHAEVVGERPRGWYTGRCSVNTVRLTAEEGGFDWISDTYDDDQPYWLETGTRDQLVIPYTLEANDMRFATAPGYIEGEQFFTYLRDSFDTLYAEGCAGQAKMFSIGLHCRLIGRPGKIAGLKRFLDYARTHERVWFPCRGDIARHWHETHPHRRRPRPSRMDRESFVAHFGGIYEHSPWIAERAFELELGPAHDSPAGLANALARIFRSATPAERLSVLKAHPDLAGKLAQARRLTASSSFEQSSAGLDALTDAERAEFATLNADYVAKHGFPFIIAVRDHDKAGILAAFETRLAHDSATEFATACRQVERIAELRLQDMLKLEHHHHHH”: the “soluble on expression in E. coli” value is given as “not soluble”.

In the case of “MKSACSIITASIVLYKSKPDIIRDVITSFFSDTVTKKKLILIDNSPTDSLRVLQEERPEDIQYFFNNRNIGFGSAHNIGIREAARFNPSYHLILNPDVQFGPEVVPTLASYMDENPDIGLLMPQVYYPNGELQHLCKLFPRPWDVMLRRFVPYRSYRERNNERFELRNWSYDTIQDIPSLSGCFMFARMDILREVGGFDERFFMYAEDLDLCRRIGQVSRTVFFPKVSIMHTYAKGSYHLEHHHHHH”, the “soluble on expression in E. coli” value is listed as “soluble”.

Consider “MKSAELKYLDFEDFTKLIALAKEKINPIYSSSFMIYIAAMTGMRFSELLGLTWDNVDFEKGQIYVKRTWDIYKNNFAPTKNDQSVRFLAIDSSTMQVMINYKEQQEKLLKRLEIEPEHPFVFYNIKNGLITNNSLNKQLRNMCKKLGFKKIITCHGLRHTHASTMLYKGINILYVSKRLGHSSLNVTMSVYSHILKLEHHHHHH”, for which the “soluble on expression in E. coli” value was “not soluble”.

For the sequence “MKSEANLRGMIDIEFYYHTCEAKKYFRNEVINYLVNLKSNVTIEMTRYWTEGADVVNHLFFCNIHGIGIPNLHGVLFQVKSYRYYSGFLLSTASQSFCG”, the “soluble on expression in E. coli” value is “not soluble”.

Consider “MKSFKEQYTLDERLAESREIIAKYPTRIPVIAEKYCKTDLPAIEKKKFLVPRDMSVGQFIYILSARLHLSPGKALFVFVNNTLPQTAALMDSVYESYKDDDGFVYMCYSSEKTFG”, for which the “soluble on expression in E. coli” value was “not soluble”.

As to “MKSHVTDLTETLSSMEISRLEQQLTDFEAKKGSQIALLIIPTTQPETIEQYSIQVAEVWKLGRKGIDDGVLLLVAKNDRTLRIETGYGLEGVLPDALARRIIDEIIVPKFRQGHFFGGLQAGVEQIISIIEGETLPESLEHHHHHH”, the “soluble on expression in E. coli” value is “not soluble”.

With “MKSLEEILQYNEKFVEEKKYEEFVAGKFPNKKMVIISCMDTRLVELLPKAMNMRNGDVKIIKVAGAVISHPFGSIMRSILVAVYELGADEVCVVGHHDCGMAKIQASSTIEKMKERGITEEKLDMLRYSGIDLEQFLRGFSSVEESVEHSVSVLRNHPLLPEEVPVHGLVIDPDTGKLDLVVNGYDN”, the “soluble on expression in E. coli” value is recorded as “not soluble”.

In the case of “MKSPQAQQILDQARRLLYEKAMVKINGQYVGTVAAIPQSDHHDLNYTEVFIRDNVPVMIFLLLQNETEIVQNFLEICLTLQSKGFPTYGIFPTSFVETENHELKADYGQRAIGRVCSVDASLWWPILAYYYVQRTGNEAWARQTHVQLGLQKFLNLILHPVFRDAPTLFVPDGAFMIDRPMDVWGAPLEIQTLLYGALKSAAGLLLIDLKAKGYCSNKDHPFDSFTMEQSHQFNLSVDWLKKLRTYLLKHYWINCNIVQALRRRPTEQYGEEASNEHNVHTETIPNWLQDWLGDRGGYLIGNIRTGRPDFRFFSLGNCLGAIFDVTSLAQQRSFFRLVLNNQRELCAQMPLRICHPPLKDDDWRSKTGFDRKNLPWCYHNAGHWPCLFWFLVVAVLRHSCHSNYGTVEYAEMGNLIRNNYEVLLRRLPKHKWAEYFDGPTGFWVGQQSRSYQTWTIVGLLLVHHFTEVNPDDALMFDLPSLKSLHQALHLEHHHHHH”, the “soluble on expression in E. coli” value is given as “not soluble”.

For the sequence “MKSSPKSLKMRDNLLDGTFVVIDLEATGFDVEKSEVIDLAAVRVEGGIITEKFSTLVYPGYFIPERIKKLTGITNAMLVGQPTIEEVLPEFLEFVGDNIVVGHFVEQDIKFINKYTKQYRGKKFRNPSLCTLKLARKVFPGLKKYSLKEIAENFGFETNGVHRALKDATLTAEIFIKILEELWFKYGIGDYYSLKRLEKGKF”, the “soluble on expression in E. coli” value was “soluble”.

Regarding “MKSVTVFLLAGTTFAIYFDGKGSRHSSSSSEEHGGHGPRPGPGGPGRGGNCSPGWLRFERQSGVWCVFVGLAGINDNSFAQKDGQSACVALGATLTGFQNDKERMAVADEAGRKLGAAGGGIAGLWLGATTRAGCKAGACGPLNTFMWTDGVTTGTAGLKWATGEPDSVDYPGTAACIQQFIMLPNWVPGPYDLEGFRTGFTHGILYKFSCIAPVTPGTRMFACGKMAAG”, the “soluble on expression in E. coli” value is recorded as “not soluble”.

Consider “MKSYLNLKEEVWDKETCSGCGACVSVCPTENIYFKQQSPVQFDCDECACIIVPTENGESPISAEFCKVTLYDVNCGACYNACPRTKERHIFNLEKVPGRVIENYKAKSTLETKNIQSGGVVTAILANAFDEDLIDGAIVMMEDKWTMDPKSYLATSKEDVLKTAGSRYNWNVPILEVLKEAVMVKKLNKIAVVGTPCVINAVYQMMATNNDLVEPFKKAIRLKISLFCFETFDYDKMLKKLKEVEVNPWDIKKMEIDKGKLIVSTIHGNVFNFKIDEMDEYVRKGCKVCRDFTGISSDISVGNVGTPEGYSTVLVRNKWGKGFFDRAVINGYVSVEGEASIDPVISLSKKKMERKDIEFLEHHHHHH”, for which the “soluble on expression in E. coli” value is recorded as “not soluble”.

For the sequence “MKSYMTQRLDEYRDGNEDKGRLLVSCPDQPGIVSAVSAFLFEHGANIIESNQYTTDPEGGRFFLRIEFDCAGIREKKSSLQAAFASVAEKFDMTWSLTLASELKRVAIFVSKNLHCLHELIWEWQTGNLMAEIAVVISNHEEARELVERLNIPFHYMKANKDIRAEVEKKQLELLEQYDVDVIVLARYMQILTPDFVSAHPNRIINIHHSFLPAFIGANPYKRAYERGVKLIGATSHYVTNDLDEGPIIEQDIKRVDHRDNAETLKNIGRTIERSVLARAVKWHLEDRVIVHENK”, the “soluble on expression in E. coli” value is on record as “not soluble”.

“MKTALLLVDIQNDYFPNGKMELRNPVEASEYANQLLQHFRTNSEPILHIQHVAIKDDATFFLPNTEGVHIHESVRPLREETVIVKHYPNSFRETNLLEQLKRLNIEHVVVCGMMTHMCIDATVRAAFDFGFQCTVIHDACATKDLSFKNATIPAVYIHNTILASLNGVYANVISTQEFLAT”: the “soluble on expression in E. coli” value is recorded as “not soluble”.
